Where a chain is given by its changes, count along the chain named. One block for each binder: values may come before it.
What was measured:
Grb2-Alexa Fluor 647 [1] = biological target: T1, Grb2-Alexa Fluor 647 (UniProt P62993 1-217, Alexa Fluor 647 (site not stated)); test: ITC
Grb2-Alexa Fluor 647 [2] = biological target: T1, Grb2-Alexa Fluor 647; test: single-molecule dwell time analysis

Kd (Grb2-Alexa Fluor 647 [1]): 459 nM
koff (Grb2-Alexa Fluor 647 [2]): 1.4 s⁻¹
B1: LAT-FFFY (monovalent LAT1Y, residue 48-233), phosphorylated (domain or fragment)
chain: GIQFKRPHTVAPWPPAFPPVTSFPPLSQPDLLPIPRSPQPLGGSHRTPSSRRDSDGANSVASFENEEPACEDADEDEDDFHNPGFLVVLPDSTPATSTAAPSAPALSTPGIRDSAFSMESIDDFVNVPESGESAEASLDGSREFVNVSQELHPGAAKTEPAALSSQEAEEVEEEGAPDYENLQELN
modifications: phosphotyrosine at Y226; Alexa Fluor 568 (site not stated)

Kd (Grb2-Alexa Fluor 647 [1]): 195 nM
koff (Grb2-Alexa Fluor 647 [2]): 3.3 s⁻¹
B2: LAT-FFYF (monovalent LAT1Y, residue 48-233), phosphorylated (domain or fragment)
chain: B1 chain with F144Y, Y179F
modifications: phosphotyrosine at Y191; Alexa Fluor 568 (site not stated)
